# Data as given in PMC9352680, “A comprehensive thermodynamic model for RNA binding by the Saccharomyces cerevisiae Pumilio protein PUF4”.
# Positions count from the first letter of the chain named. Names may count otherwise.
# T1: PUF4 RNA-binding domain (Saccharomyces cerevisiae, UniProt P25339 537-888)
# T1 sequence: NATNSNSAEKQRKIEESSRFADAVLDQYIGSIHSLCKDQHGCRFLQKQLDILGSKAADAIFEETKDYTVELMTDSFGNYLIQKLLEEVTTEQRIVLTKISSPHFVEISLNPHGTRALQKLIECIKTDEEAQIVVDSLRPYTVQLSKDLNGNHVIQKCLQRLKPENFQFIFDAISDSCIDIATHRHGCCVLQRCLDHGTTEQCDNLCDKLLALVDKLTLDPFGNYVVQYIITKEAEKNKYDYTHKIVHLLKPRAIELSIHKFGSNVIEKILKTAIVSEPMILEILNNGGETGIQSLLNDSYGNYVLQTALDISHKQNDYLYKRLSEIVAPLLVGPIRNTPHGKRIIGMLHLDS
# B1: Ib_S2_P3E.1_K3.1_C3.1_H3.1_A3.1_[A6G]_F3.1_[A8C]_T3.1 (ssRNA)
# RNA: UUUGAUUAAUAUGAUAUCGUUCUUUCUUGUAUGUCUUCUUUCUCGAUAUCAUAUUAAUCUUU
# B2: Ic_S2_P3E.1_K3.1_C3.1_H3.1_A3.1_[A6C]_F3.1_[A8C]_T3.1 (ssRNA)
# RNA: B1 RNA with G33C
# B3: Ib_S2_P3E.1_K3.1_C3.1_H3.1_A3.1_[A6T]_F3.1_[A8C]_T3.1 (ssRNA)
# RNA: B1 RNA with G33U
# B4: Ib_S2_P3E.1_K3.1_C3.1_H3.1_A3.1_[A6G]_F3.1_[A8T]_T3.1 (ssRNA)
# RNA: B1 RNA with C35U
# B5: Ie_S2_P4E.1_K4.1_C4.1_H4.1_A4.1_[+5CT]_F4.1_T4.1 (ssRNA)
# RNA: UUUGAUUAAUAUGAUAUCGUUCUUUCUUGUAUCUAUUAUUCUUUCUCGAUAUCAUAUUAAUCUUU
# B6: Ie_S2_P5E.1_K5.1_C5.1_H5.1_A5.1_[+6C]_F5.1_T5.1 (ssRNA)
# RNA: B5 RNA with C33U, U34C
# B7: Ie_S2_P4E.1_K4.1_C4.1_H4.1_A4.1_[+5CC]_F4.1_T4.1 (ssRNA)
# RNA: B5 RNA with U34C
# B8: Ie_S2_P5E.1_K5.1_C5.1_H5.1_[+4T]_A5.1_F5.1_T5.1 (ssRNA)
# RNA: B5 RNA with C33U
# B9: Ie_S2_P4E.1_K4.1_C4.1_H4.1_A4.1_[+7TT]_F4.1_T4.1 (ssRNA)
# RNA: B5 RNA with C33A, A35U
# B10: Ie_S2_P4E.1_K4.1_C4.1_H4.1_A4.1_[+6CT]_F4.1_T4.1 (ssRNA)
# RNA: B5 RNA with C33A, U34C, A35U
# B11: Ie_S2_P4E.1_K4.1_C4.1_H4.1_A4.1_[+6TC]_F4.1_T4.1 (ssRNA)
# RNA: B5 RNA with C33A, A35C
# B12: Ie_S2_P4E.1_K4.1_C4.1_H4.1_[+2CTCTC]_A4.1_F4.1_T4.1 (ssRNA)
# RNA: UUUGAUUAAUAUGAUAUCGUUCUUUCUUGCUCUCUAUAUUAUUCUUUCUCGAUAUCAUAUUAAUCUUU
# B13: Ie_S2_P4E.1_K4.1_C4.1_H4.1_[+2CCTCT]_A4.1_F4.1_T4.1 (ssRNA)
# RNA: B12 RNA with U31C, C32U, U33C, C34U
# B14: Ie_S2_P5E.1_K5.1_C5.1_H5.1_A5.1_[+5TTCC]_F5.1_T5.1 (ssRNA)
# RNA: B12 RNA with C30U, U31A, C32U, C34U, U35C, A36C
# B15: Ie_S2_P4E.1_K4.1_C4.1_H4.1_[+4CTCTC]_A4.1_F4.1_T4.1 (ssRNA)
# RNA: B12 RNA with C30U, U31A, A36C
# B16: Ie_S2_P4E.1_K4.1_C4.1_H4.1_[+4CCCTT]_A4.1_F4.1_T4.1 (ssRNA)
# RNA: B12 RNA with C30U, U31A, U33C, A36U
# B17: Ie_S2_P4E.1_K4.1_C4.1_H4.1_[+2TCTCT]_A4.1_F4.1_T4.1 (ssRNA)
# RNA: B12 RNA with C30U, U31C, C32U, U33C, C34U
# B18: Ie_S2_P4E.1_K4.1_C4.1_H4.1_[+3TCTCT]_A4.1_F4.1_T4.1 (ssRNA)
# RNA: B12 RNA with C30U
# B19: Ie_S2_P4E.1_K4.1_C4.1_H4.1_[+3CTCTC]_A4.1_F4.1_T4.1 (ssRNA)
# RNA: B12 RNA with C30U, U31C, C32U, U33C, C34U, U35C
# B20: Ie_S2_P4E.1_K4.1_C4.1_H4.1_[+4TTCCT]_A4.1_F4.1_T4.1 (ssRNA)
# RNA: B12 RNA with C30U, U31A, C32U, U35C, A36U
# B21: Ie_S2_P4E.1_K4.1_C4.1_H4.1_[+4TCTCT]_A4.1_F4.1_T4.1 (ssRNA)
# RNA: B12 RNA with C30U, U31A, C32U, U33C, C34U, U35C, A36U
# B22: Ie_S2_P4E.1_K4.1_C4.1_H4.1_A4.1_[+5TCTCT]_F4.1_T4.1 (ssRNA)
# RNA: B12 RNA with C30U, U31A, C32U, A36C
# B23: Ie_S2_P5E.1_K5.1_C5.1_H5.1_A5.1_[+5CCTC]_F5.1_T5.1 (ssRNA)
# RNA: B12 RNA with C30U, U31A, C32U, U33C, A36C
# B24: Ie_S2_P5E.1_K5.1_C5.1_H5.1_A5.1_[+5CCCT]_F5.1_T5.1 (ssRNA)
# RNA: B12 RNA with C30U, U31A, C32U, U33C, U35C, A36U
# B25: Ie_S2_P4E.1_K4.1_C4.1_H4.1_[+3CCCTT]_A4.1_F4.1_T4.1 (ssRNA)
# RNA: B12 RNA with C30U, U31C, U33C, C34U
# B26: Ie_S2_P4E.1_K4.1_C4.1_H4.1_[+3TTCCT]_A4.1_F4.1_T4.1 (ssRNA)
# RNA: B12 RNA with C30U, C32U, U33C
# B27: Ie_S2_P4E.1_K4.1_C4.1_H4.1_[+4CCTCT]_A4.1_F4.1_T4.1 (ssRNA)
# RNA: B12 RNA with C30U, U31A, U33C, C34U, U35C, A36U
# B28: Ie_S2_P4E.1_K4.1_C4.1_H4.1_[+3CTC]_A4.1_F4.1_T4.1 (ssRNA)
# RNA: UUUGAUUAAUAUGAUAUCGUUCUUUCUUGUCUCAUAUUAUUCUUUCUCGAUAUCAUAUUAAUCUUU
# B29: Ie_S2_P4E.1_K4.1_C4.1_H4.1_A4.1_[+5CTC]_F4.1_T4.1 (ssRNA)
# RNA: B28 RNA with C31A, A34U, U35C
# B30: Ie_S2_P5E.1_K5.1_C5.1_H5.1_[+4TT]_A5.1_F5.1_T5.1 (ssRNA)
# RNA: B28 RNA with C31A, C33U, A34U
# B31: Ie_S2_P4E.1_K4.1_C4.1_H4.1_A4.1_[+5TCC]_F4.1_T4.1 (ssRNA)
# RNA: B28 RNA with C31A, C33U, A34C, U35C
# B32: Ie_S2_P4E.1_K4.1_C4.1_H4.1_[+4CCT]_A4.1_F4.1_T4.1 (ssRNA)
# RNA: B28 RNA with C31A, U32C, A34U
# B33: Ie_S2_P5E.1_K5.1_C5.1_H5.1_[+4CT]_A5.1_F5.1_T5.1 (ssRNA)
# RNA: B28 RNA with C31A, U32C, C33U, A34U
# B34: Ie_S2_P4E.1_K4.1_C4.1_H4.1_A4.1_[+5TTC]_F4.1_T4.1 (ssRNA)
# RNA: B28 RNA with C31A, C33U, A34U, U35C
# B35: Ie_S2_P4E.1_K4.1_C4.1_H4.1_A4.1_[+7CCT]_F4.1_T4.1 (ssRNA)
# RNA: B28 RNA with C31A, C33A, A34U, U35C, A36C
# B36: Ie_S2_P4E.1_K4.1_C4.1_H4.1_A4.1_[+6CCT]_F4.1_T4.1 (ssRNA)
# RNA: B28 RNA with C31A, C33A, A34C, U35C, A36U
# B37: Ie_S2_P4E.1_K4.1_C4.1_H4.1_[+4TCC]_A4.1_F4.1_T4.1 (ssRNA)
# RNA: B28 RNA with C31A, A34C
# B38: Ie_S2_P5E.1_K5.1_C5.1_H5.1_A5.1_[+6CT]_F5.1_T5.1 (ssRNA)
# RNA: B28 RNA with C31A, C33U, A34C
# B39: Ie_S2_P4E.1_K4.1_C4.1_H4.1_A4.1_F4.1_[+8CTT]_T4.1 (ssRNA)
# RNA: B28 RNA with C31A, C33A, A34U, A36C
# B40: Ie_S2_P5E.1_K5.1_C5.1_H5.1_[+4TC]_A5.1_F5.1_T5.1 (ssRNA)
# RNA: B28 RNA with C31A, A34U
# B41: Ie_S2_P4E.1_K4.1_C4.1_H4.1_A4.1_[+6TTT]_F4.1_T4.1 (ssRNA)
# RNA: B28 RNA with C31A, C33A, A34U, A36U
# B42: Ie_S2_P4E.1_K4.1_C4.1_H4.1_[+3CCTC]_A4.1_F4.1_T4.1 (ssRNA)
# RNA: UUUGAUUAAUAUGAUAUCGUUCUUUCUUGUCCUCAUAUUAUUCUUUCUCGAUAUCAUAUUAAUCUUU
# B43: Ie_S2_P4E.1_K4.1_C4.1_H4.1_A4.1_[+7CTCT]_F4.1_T4.1 (ssRNA)
# RNA: B42 RNA with C31A, C32U, U33A, C34U, A35C, A37C
# B44: Ie_S2_P4E.1_K4.1_C4.1_H4.1_A4.1_[+5TTCC]_F4.1_T4.1 (ssRNA)
# RNA: B42 RNA with C31A, C32U, C34U, A35C, U36C
# B45: Ie_S2_P4E.1_K4.1_C4.1_H4.1_A4.1_[+6CTCT]_F4.1_T4.1 (ssRNA)
# RNA: B42 RNA with C31A, C32U, U33A, A35U, U36C, A37U
# B46: Ie_S2_P4E.1_K4.1_C4.1_H4.1_[+3CCCT]_A4.1_F4.1_T4.1 (ssRNA)
# RNA: B42 RNA with U33C, C34U
# B47: Ie_S2_P5E.1_K5.1_C5.1_H5.1_A5.1_[+6CTC]_F5.1_T5.1 (ssRNA)
# RNA: B42 RNA with C31A, C32U, A35U, U36C
# B48: Ie_S2_P4E.1_K4.1_C4.1_H4.1_A4.1_[+5CTCT]_F4.1_T4.1 (ssRNA)
# RNA: B42 RNA with C31A, C32U, U33C, C34U, A35C
# B49: Ie_S2_P5E.1_K5.1_C5.1_H5.1_A5.1_[+5TCC]_F5.1_T5.1 (ssRNA)
# RNA: B42 RNA with C31A, C32U, A35C
# B50: Ie_S2_P4E.1_K4.1_C4.1_H4.1_[+4CCCT]_A4.1_F4.1_T4.1 (ssRNA)
# RNA: B42 RNA with C31A, U33C, A35U
# B51: If_S2_P5E.1_K5.1_C5.1_H5.1_A5.1_F5.1_T5.1 (ssRNA)
# RNA: UUUGAUUAAUAUGAUAUCGUUCUUUCUUGUAUUAUUAUUCUUUCUCGAUAUCAUAUUAAUCUUU
# Biological target: T1, PUF4 RNA-binding domain
# Assay: Mg; RNA-MaP; 20 mM Na-HEPES pH 7.4, 30 mM KOAc, 0.75 mM MgCl2, 0.1% Tween-20, 5% glycerol, 0.1 mg/mL BSA, 2 mM DTT; 25 C; 0.0125-409.6 nM protein
# Details: tags: N-His6-TEV cleaved; C-SNAP kept, Cy3B-labelled; label: tethered on chip by stalled RNA polymerase
row,Binder,Kd
1,B1,0.0901 µM
2,B2,0.0154 µM
3,B3,0.0293 µM
4,B4,0.0225 µM
5,B5,0.00574 µM
6,B6,0.0256 µM
7,B7,0.0202 µM
8,B8,0.0116 µM
9,B9,0.0023 µM
10,B10,0.00375 µM
11,B11,0.00455 µM
12,B12,0.101 µM
13,B13,0.122 µM
14,B14,0.00716 µM
15,B15,0.0065 µM
16,B16,0.00528 µM
17,B17,0.0265 µM
18,B18,0.012 µM
19,B19,0.135 µM
20,B20,0.008 µM
21,B21,0.00716 µM
22,B22,0.00774 µM
23,B23,0.0102 µM
24,B24,0.0119 µM
25,B25,0.0358 µM
26,B26,0.0175 µM

row,Binder,Kd
1,B27,0.00557 µM
2,B28,0.00957 µM
3,B29,0.0261 µM
4,B30,0.00157 µM
5,B31,0.0464 µM
6,B32,0.00113 µM
7,B33,0.000923 µM
8,B34,0.0299 µM
9,B35,0.0106 µM
10,B36,0.0127 µM
11,B37,0.00235 µM
12,B38,0.00141 µM
13,B39,0.0046 µM
14,B40,0.00155 µM
15,B41,0.00388 µM
16,B42,0.106 µM
17,B43,0.0128 µM
18,B44,0.0477 µM
19,B45,0.0063 µM
20,B46,0.0414 µM
21,B47,0.0187 µM
22,B48,0.00451 µM
23,B49,0.00458 µM
24,B50,0.00196 µM
25,B51,0.00192 µM
